Experimental data taken from patent US20250177445A1 (A2 BIOTHERAPEUTICS, published 2025).

Target: HLA-E*01:03 expressed on HLA-E knockout HeLa cells by mRNA transfection (human, UniProt P13747 22-358)
Assay: cell-based or functional assay

B1: HLA-E activator receptor (third generation CAR: HLA-E scFv, CD8 hinge, CD28 transmembrane domain, CD28/41BB/CD3 intracellular domain) (receptor)
chain: QVQLRESGPSLVKPSQTLSLTCTVSGFSLTSYGVHWVRQPPGKGLEWLGVIWTGGTTNYNTALMSRLSITKDNSKSQVFLKMNSLQTDDTAIYYCARDGDSYNREAWFAYWGQGTLVTVSAGGGGSGGGGSGGGGSGGQIVLTQSPAVISASPGEKVILTCSASSSVSYMHWFQQKPGTSPKLWIYGTSNLASGVPARFSGGGSGTSYSLTISRMEAEDAATYYCQQRSRYPFTFGSGTKLEIKTTTPAPRPPTPAPTIASQPLSLRPEACRPAAGGAVHTRGLDFACDFWVLVVVGGVLACYSLLVTVAFIIFWVRSKRSRLLHSDYMNMTPRRPGPTRKHYQPYAPPRDFAAYRSKRGRKKLLYIFKQPFMRPVQTTQEEDGCSCRFPEEEEGGCELRVKFSRSADAPAYKQGQNQLYNELNLGRREEYDVLDKRRGRDPEMGGKPRRKNPQEGLYNELQKDKMAEAYSEIGMKGERRRGKGHDGLYQGLSTATKDTYDALHMQALPPR
EC50 of specific killing of HeLa cells by primary T cells: ~10000 HLA-E molecules
